Laboratory results reported in patent publication US20180092966A1 (CSL, published 2018).

Key:
[1] = target: T1, VWF-FP K1116C mutant (albumin-fused von Willebrand Factor) (human); experiment: covalent-FVIII ELISA over FVIII activity assay
T1 construct: Stably expressed in CHO cells with furin co-transfected; also called VWF-FP mutant K1116C; Cys residue at VWF aa position 1116; not shown: linker between VWF and albumin, made in analogy to WO 2009/156137

[2] = target: T1, VWF-FP K1116C mutant (albumin-fused von …); experiment: covalent-FVIII ELISA over FVIII antigen ELISA
[3] = target: T1, VWF-FP K1116C mutant (albumin-fused von …); experiment: ELISA of co-expression supernatant: anti-VWF capture, 350 mM CaCl2 wash, anti-FVIII detection
Protocol: (§1) Cell culture supernatant samples (10 ml) from transient transfections were concentrated with Amicon Ultracell-30K (Millipore UFC903024; 3000 g centrifugation). FVIII covalently attached to VWF-FP in culture supernatant (concentrates) was determined by a standard ELISA. Briefly, microplates were incubated with 100 μL per well of the capture antibody (rabbit anti human VWF-IgG, Dako A0082 [Dako, Hamburg, Germany], diluted 1:2000 in buffer A [Sigma C3041, Sigma-Aldrich, Munich, Germany]) overnight at ambient temperature. After washing plates three times with buffer B (Sigma T9039), each well was incubated with 200 μL buffer C (Sigma T6789) for 1.5 hours at ambient temperature (blocking). After another three wash steps with buffer B, serial dilutions of the test sample in buffer B as well as serial dilutions of a control preparation of covalently linked FVIII-VWF-FP, (2.0-0.03 arbitrary U/ml in buffer B (we call these “arbitrary units” as they may not correspond to the standard FVIII units as determined using Standard Human Plasma); volumes per well: 100 μL) were incubated for 1.5 hours at ambient temperature. After three wash steps with buffer B, 200 μL of 350 mM CaCl₂ were added to each well and incubated for 1 hour at ambient temperature. CaCl₂ was removed (without washing) and additional 200 μl were added to each well and incubated further for 1 hour. After three wash steps with buffer B 100 μL of a 1:2 dilution in buffer B of the detection antibody (Detecting Antibody for FVIII:C, peroxidase labelled, Cedarlane CL20035K-D) were added to each well and incubated for 1 hour at ambient temperature. After three wash steps with buffer B, 100 μL of substrate solution (OUVF, Siemens Healthcare Diagnostics) were added per well and incubated for 15 minutes at ambient temperature in the dark. Addition of 100 μL undiluted stop dilution (OSFA, Siemens Healthcare Diagnostics) prepared the samples for reading in a suitable microplate reader at 450 nm wavelength. Concentrations of the test samples were then calculated using the standard curve with the control preparation.

[4] = target: T2, VWF-FP R768C mutant (albumin-fused von Willebrand Factor) (human); experiment: covalent-FVIII ELISA over FVIII activity assay
T2 construct: Stably expressed in CHO cells with furin co-transfected; also called VWF-FP mutant R768C; Cys residue at VWF aa position 768; not shown: linker between VWF and albumin, made in analogy to WO 2009/156137

[5] = target: T2, VWF-FP R768C mutant (albumin-fused von …); experiment: covalent-FVIII ELISA over FVIII antigen ELISA
[6] = target: T2, VWF-FP R768C mutant (albumin-fused von …); experiment: ELISA of co-expression supernatant: anti-VWF capture, 350 mM CaCl2 wash, anti-FVIII detection
Protocol: as §1

T1 sequence (chain, as listed by the source K1116C K1116C): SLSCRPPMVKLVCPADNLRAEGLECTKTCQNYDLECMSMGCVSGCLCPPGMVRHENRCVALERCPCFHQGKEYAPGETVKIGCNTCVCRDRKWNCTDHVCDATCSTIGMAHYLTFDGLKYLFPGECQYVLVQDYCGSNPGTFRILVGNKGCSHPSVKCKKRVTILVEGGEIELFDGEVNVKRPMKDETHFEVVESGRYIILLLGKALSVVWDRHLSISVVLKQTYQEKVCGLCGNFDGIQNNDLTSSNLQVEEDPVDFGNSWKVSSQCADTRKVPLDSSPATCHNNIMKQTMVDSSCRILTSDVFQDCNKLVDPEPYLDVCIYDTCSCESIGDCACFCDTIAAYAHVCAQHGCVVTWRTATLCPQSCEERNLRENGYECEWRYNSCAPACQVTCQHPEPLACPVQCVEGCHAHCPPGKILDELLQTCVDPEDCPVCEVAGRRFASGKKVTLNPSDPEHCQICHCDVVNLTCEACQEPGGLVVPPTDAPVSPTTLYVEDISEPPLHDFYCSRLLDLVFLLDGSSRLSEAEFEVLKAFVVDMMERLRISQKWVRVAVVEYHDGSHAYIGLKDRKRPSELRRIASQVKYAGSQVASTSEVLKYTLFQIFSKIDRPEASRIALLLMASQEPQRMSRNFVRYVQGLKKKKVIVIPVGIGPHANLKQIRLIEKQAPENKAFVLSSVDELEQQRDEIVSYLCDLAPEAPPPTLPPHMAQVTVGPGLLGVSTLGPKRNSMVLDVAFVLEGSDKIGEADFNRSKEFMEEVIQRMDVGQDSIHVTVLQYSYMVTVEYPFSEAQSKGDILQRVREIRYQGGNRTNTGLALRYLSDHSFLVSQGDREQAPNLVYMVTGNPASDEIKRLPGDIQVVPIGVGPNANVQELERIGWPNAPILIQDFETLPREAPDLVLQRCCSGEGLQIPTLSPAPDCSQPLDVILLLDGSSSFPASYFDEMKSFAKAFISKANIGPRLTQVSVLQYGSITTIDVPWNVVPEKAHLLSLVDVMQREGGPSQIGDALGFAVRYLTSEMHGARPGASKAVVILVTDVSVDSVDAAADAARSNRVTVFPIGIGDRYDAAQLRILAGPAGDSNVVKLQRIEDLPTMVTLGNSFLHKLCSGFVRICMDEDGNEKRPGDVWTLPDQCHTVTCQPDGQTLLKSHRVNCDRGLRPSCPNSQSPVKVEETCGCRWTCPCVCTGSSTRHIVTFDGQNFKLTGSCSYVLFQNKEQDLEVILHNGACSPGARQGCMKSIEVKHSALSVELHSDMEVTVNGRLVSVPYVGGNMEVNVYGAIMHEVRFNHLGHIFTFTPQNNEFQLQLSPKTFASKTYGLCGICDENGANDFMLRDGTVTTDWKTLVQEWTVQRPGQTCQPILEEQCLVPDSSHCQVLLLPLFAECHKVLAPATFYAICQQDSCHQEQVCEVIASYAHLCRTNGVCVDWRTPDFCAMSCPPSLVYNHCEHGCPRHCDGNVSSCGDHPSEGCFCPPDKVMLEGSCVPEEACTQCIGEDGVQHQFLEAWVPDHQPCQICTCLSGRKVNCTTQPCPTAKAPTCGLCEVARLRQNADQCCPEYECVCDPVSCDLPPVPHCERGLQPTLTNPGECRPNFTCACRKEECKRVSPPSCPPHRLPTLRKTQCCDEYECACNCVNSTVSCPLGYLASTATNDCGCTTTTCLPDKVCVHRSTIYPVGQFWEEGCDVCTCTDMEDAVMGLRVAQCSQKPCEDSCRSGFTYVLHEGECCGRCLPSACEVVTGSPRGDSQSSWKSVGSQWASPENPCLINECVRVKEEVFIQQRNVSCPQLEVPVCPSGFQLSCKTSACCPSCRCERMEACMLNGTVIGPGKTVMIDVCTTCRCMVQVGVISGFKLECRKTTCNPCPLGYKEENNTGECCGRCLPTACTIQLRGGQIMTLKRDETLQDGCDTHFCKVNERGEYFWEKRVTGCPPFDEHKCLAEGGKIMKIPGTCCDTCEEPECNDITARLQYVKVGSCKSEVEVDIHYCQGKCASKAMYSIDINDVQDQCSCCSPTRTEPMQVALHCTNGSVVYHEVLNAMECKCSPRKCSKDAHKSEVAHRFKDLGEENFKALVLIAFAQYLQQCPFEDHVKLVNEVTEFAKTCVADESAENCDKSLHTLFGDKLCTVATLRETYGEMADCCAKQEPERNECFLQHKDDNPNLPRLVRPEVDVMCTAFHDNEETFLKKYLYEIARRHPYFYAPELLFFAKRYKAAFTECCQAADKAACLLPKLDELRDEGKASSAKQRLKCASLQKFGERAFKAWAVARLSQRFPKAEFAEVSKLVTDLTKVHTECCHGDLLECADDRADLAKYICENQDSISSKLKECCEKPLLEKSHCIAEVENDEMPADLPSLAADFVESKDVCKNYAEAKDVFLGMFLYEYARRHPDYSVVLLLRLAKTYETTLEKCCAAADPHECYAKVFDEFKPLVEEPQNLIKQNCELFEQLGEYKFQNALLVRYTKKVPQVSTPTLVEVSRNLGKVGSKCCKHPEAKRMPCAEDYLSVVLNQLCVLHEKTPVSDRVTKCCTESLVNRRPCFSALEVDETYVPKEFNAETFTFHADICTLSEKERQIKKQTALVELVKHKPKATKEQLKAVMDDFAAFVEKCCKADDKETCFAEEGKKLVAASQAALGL
T2 sequence (chain, as listed by the source R768C R768C): as the sequence (chain, as listed by the source K1116C K1116C) above, with R5C, C353K counted along it

Row | Binder | ratio covalent FVIII/Total FVIII activity [1] | ratio covalent FVIII/Total FVIII antigen [2] | covalent FVIII [3] [amU/ml] | ratio covalent FVIII/Total FVIII activity [4] | ratio covalent FVIII/Total FVIII antigen [5] | covalent FVIII [6] [amU/ml]
1 | Factor VIII SingleChain F1677C mutant (other, Single-chain FVIII with partial B-domain deletion; also called FVIII-SC F1677C; Cys residue at FVIII aa position 1677) ATRRYYLGAVELSWDYMQSDLGELPVDARFPPRVPKSFPFNTSVVYKKTLFVEFTDHLFNIAKPRPPWMGLLGPTIQAEVYDTVVITLKNMASHPVSLHAVGVSYWKASEGAEYDDQTSQREKEDDKVFPGGSHTYVWQVLKENGPMASDPLCLTYSYLSHVDLVKDLNSGLIGALLVCREGSLAKEKTQTLHKFILLFAVFDEGKSWHSETKNSLMQDRDAASARAWPKMHTVNGYVNRSLPGLIGCHRKSVYWHVIGMGTTPEVHSIFLEGHTFLVRNHRQASLEISPITFLTAQTLLMDLGQFLLFCHISSHQHDGMEAYVKVDSCPEEPQLRMKNNEEAEDYDDDLTDSEMDVVRFDDDNSPSFIQIRSVAKKHPKTWVHYIAAEEEDWDYAPLVLAPDDRSYKSQYLNNGPQRIGRKYKKVRFMAYTDETFKTREAIQHESGILGPLLYGEVGDTLLIIFKNQASRPYNIYPHGITDVRPLYSRRLPKGVKHLKDFPILPGEIFKYKWTVTVEDGPTKSDPRCLTRYYSSFVNMERDLASGLIGPLLICYKESVDQRGNQIMSDKRNVILFSVFDENRSWYLTENIQRFLPNPAGVQLEDPEFQASNIMHSINGYVFDSLQLSVCLHEVAYWYILSIGAQTDFLSVFFSGYTFKHKMVYEDTLTLFPFSGETVFMSMENPGLWILGCHNSDFRNRGMTALLKVSSCDKNTGDYYEDSYEDISAYLLSKNNAIEPRSFSQNSRHRSTRQKQFNATTIPENTTLQSDQEEIDYDDTISVEMKKEDCDIYDEDENQSPRSFQKKTRHYFIAAVERLWDYGMSSSPHVLRNRAQSGSVPQFKKVVFQEFTDGSFTQPLYRGELNEHLGLLGPYIRAEVEDNIMVTFRNQASRPYSFYSSLISYEEDQRQGAEPRKNFVKPNETKTYFWKVQHHMAPTKDEFDCKAWAYFSDVDLEKDVHSGLIGPLLVCHTNTLNPAHGRQVTVQEFALFFTIFDETKSWYFTENMERNCRAPCNIQMEDPTFKENYRFHAINGYIMDTLPGLVMAQDQRIRWYLLSMGSNENIHSIHFSGHVFTVRKKEEYKMALYNLYPGVFETVEMLPSKAGIWRVECLIGEHLHAGMSTLFLVYSNKCQTPLGMASGHIRDFQITASGQYGQWAPKLARLHYSGSINAWSTKEPFSWIKVDLLAPMIIHGIKTQGARQKFSSLYISQFIIMYSLDGKKWQTYRGNSTGTLMVFFGNVDSSGIKHNIFNPPIIARYIRLHPTHYSIRSTLRMELMGCDLNSCSMPLGMESKAISDAQITASSYFTNMFATWSPSKARLHLQGRSNAWRPQVNNPKEWLQVDFQKTMKVTGVTTQGVKSLLTSMYVKEFLISSSQDGHQWTLFFQNGKVKVFQGNQDSFTPVVNSLDPPLLTRYLRIHPQSWVHQIALRMEVLGCEAQDLY | 1.66 | 0.79 | 1080 |  |  | 
2 | Factor VIII SingleChain D1681C mutant (other, Single-chain FVIII with partial B-domain deletion; also called FVIII-SC D1681C; Cys residue at FVIII aa position 1681) ATRRYYLGAVELSWDYMQSDLGELPVDARFPPRVPKSFPFNTSVVYKKTLFVEFTDHLFNIAKPRPPWMGLLGPTIQAEVYDTVVITLKNMASHPVSLHAVGVSYWKASEGAEYDDQTSQREKEDDKVFPGGSHTYVWQVLKENGPMASDPLCLTYSYLSHVDLVKDLNSGLIGALLVCREGSLAKEKTQTLHKFILLFAVFDEGKSWHSETKNSLMQDRDAASARAWPKMHTVNGYVNRSLPGLIGCHRKSVYWHVIGMGTTPEVHSIFLEGHTFLVRNHRQASLEISPITFLTAQTLLMDLGQFLLFCHISSHQHDGMEAYVKVDSCPEEPQLRMKNNEEAEDYDDDLTDSEMDVVRFDDDNSPSFIQIRSVAKKHPKTWVHYIAAEEEDWDYAPLVLAPDDRSYKSQYLNNGPQRIGRKYKKVRFMAYTDETFKTREAIQHESGILGPLLYGEVGDTLLIIFKNQASRPYNIYPHGITDVRPLYSRRLPKGVKHLKDFPILPGEIFKYKWTVTVEDGPTKSDPRCLTRYYSSFVNMERDLASGLIGPLLICYKESVDQRGNQIMSDKRNVILFSVFDENRSWYLTENIQRFLPNPAGVQLEDPEFQASNIMHSINGYVFDSLQLSVCLHEVAYWYILSIGAQTDFLSVFFSGYTFKHKMVYEDTLTLFPFSGETVFMSMENPGLWILGCHNSDFRNRGMTALLKVSSCDKNTGDYYEDSYEDISAYLLSKNNAIEPRSFSQNSRHRSTRQKQFNATTIPENTTLQSDQEEIDYDDTISVEMKKEDFDIYCEDENQSPRSFQKKTRHYFIAAVERLWDYGMSSSPHVLRNRAQSGSVPQFKKVVFQEFTDGSFTQPLYRGELNEHLGLLGPYIRAEVEDNIMVTFRNQASRPYSFYSSLISYEEDQRQGAEPRKNFVKPNETKTYFWKVQHHMAPTKDEFDCKAWAYFSDVDLEKDVHSGLIGPLLVCHTNTLNPAHGRQVTVQEFALFFTIFDETKSWYFTENMERNCRAPCNIQMEDPTFKENYRFHAINGYIMDTLPGLVMAQDQRIRWYLLSMGSNENIHSIHFSGHVFTVRKKEEYKMALYNLYPGVFETVEMLPSKAGIWRVECLIGEHLHAGMSTLFLVYSNKCQTPLGMASGHIRDFQITASGQYGQWAPKLARLHYSGSINAWSTKEPFSWIKVDLLAPMIIHGIKTQGARQKFSSLYISQFIIMYSLDGKKWQTYRGNSTGTLMVFFGNVDSSGIKHNIFNPPIIARYIRLHPTHYSIRSTLRMELMGCDLNSCSMPLGMESKAISDAQITASSYFTNMFATWSPSKARLHLQGRSNAWRPQVNNPKEWLQVDFQKTMKVTGVTTQGVKSLLTSMYVKEFLISSSQDGHQWTLFFQNGKVKVFQGNQDSFTPVVNSLDPPLLTRYLRIHPQSWVHQIALRMEVLGCEAQDLY | 0.6 | 2.23 | 1440 | 1.5 | 1.55 | 87
